From PMC11398526 (bioRxiv, 2024)

B1: progesterone receptor isoform B (PR-B), full-length, Strep II tagged (natural protein)
chain: MTELKAKGPRAPHVAGGPPSPEVGSPLLCRPAAGPFPGSQTSDTLPEVSAIPISLDGLLFPRPCQGQDPSDEKTQDQQSLSDVEGAYSRAEATRGAGGSSSSPPEKDSGLLDSVLDTLLAPSGPGQSQPSPPACEVTSSWCLFGPELPEDPPAAPATQRVLSPLMSRSGCKVGDSSGTAAAHKVLPRGLSPARQLLLPASESPHWSGAPVKPSPQAAAVEVEEEDGSESEESAGPLLKGKPRALGGAAAGGGAAAVPPGAAAGGVALVPKEDSRFSAPRVALVEQDAPMAPGRSPLATTVMDFIHVPILPLNHALLAARTRQLLEDESYDGGAGAASAFAPPRSSPCASSTPVAVGDFPDCAYPPDAEPKDDAYPLYSDFQPPALKIKEEEEGAEASARSPRSYLVAGANPAAFPDFPLGPPPPLPPRATPSRPGEAAVTAAPASASVSSASSSGSTLECILYKAEGAPPQQGPFAPPPCKAPGASGCLLPRDGLPSTSASAAAAGAAPALYPALGLNGLPQLGYQAAVLKEGLPQVYPPYLNYLRPDSEASQSPQYSFESLPQKICLICGDEASGCHYGVLTCGSCKVFFKRAMEGQHNYLCAGRNDCIVDKIRRKNCPACRLRKCCQAGMVLGGRKFKKFNKVRVVRALDAVALPQPVGVPNESQALSQRFTFSPGQDIQLIPPLINLLMSIEPDVIYAGHDNTKPDTSSSLLTSLNQLGERQLLSVVKWSKSLPGFRNLHIDDQITLIQYSWMSLMVFGLGWRSYKHVSGQMLYFAPDLILNEQRMKESSFYSLCLTMWQIPQEFVKLQVSQEEFLCMKVLLLLNTIPLEGLRSQTQFEEMRSSYIRELIKAIGLRQKGVVSSSQRFYQLTKLLDNLHDLVKQLHLYCLNTFIQSRALSVEFPEMMSEVIAAQLPKILAGMVKPLLFHKK
B2: progesterone receptor isoform A (PR-A), full-length, Strep II tagged (natural protein)
chain: MSRSGCKVGDSSGTAAAHKVLPRGLSPARQLLLPASESPHWSGAPVKPSPQAAAVEVEEEDGSESEESAGPLLKGKPRALGGAAAGGGAAAVPPGAAAGGVALVPKEDSRFSAPRVALVEQDAPMAPGRSPLATTVMDFIHVPILPLNHALLAARTRQLLEDESYDGGAGAASAFAPPRSSPCASSTPVAVGDFPDCAYPPDAEPKDDAYPLYSDFQPPALKIKEEEEGAEASARSPRSYLVAGANPAAFPDFPLGPPPPLPPRATPSRPGEAAVTAAPASASVSSASSSGSTLECILYKAEGAPPQQGPFAPPPCKAPGASGCLLPRDGLPSTSASAAAAGAAPALYPALGLNGLPQLGYQAAVLKEGLPQVYPPYLNYLRPDSEASQSPQYSFESLPQKICLICGDEASGCHYGVLTCGSCKVFFKRAMEGQHNYLCAGRNDCIVDKIRRKNCPACRLRKCCQAGMVLGGRKFKKFNKVRVVRALDAVALPQPVGVPNESQALSQRFTFSPGQDIQLIPPLINLLMSIEPDVIYAGHDNTKPDTSSSLLTSLNQLGERQLLSVVKWSKSLPGFRNLHIDDQITLIQYSWMSLMVFGLGWRSYKHVSGQMLYFAPDLILNEQRMKESSFYSLCLTMWQIPQEFVKLQVSQEEFLCMKVLLLLNTIPLEGLRSQTQFEEMRSSYIRELIKAIGLRQKGVVSSSQRFYQLTKLLDNLHDLVKQLHLYCLNTFIQSRALSVEFPEMMSEVIAAQLPKILAGMVKPLLFHKK
B3: steroid receptor coactivator 3 (SRC3), full-length, Strep II tagged (natural protein)
chain: not shown

How the values were obtained:
[1] = biological target: T1, histone acetyltransferase p300, full-length, Strep II tagged (human, UniProt Q09472 1-2414); test: cross-linking
T1 sequence (Q09472 whole entry): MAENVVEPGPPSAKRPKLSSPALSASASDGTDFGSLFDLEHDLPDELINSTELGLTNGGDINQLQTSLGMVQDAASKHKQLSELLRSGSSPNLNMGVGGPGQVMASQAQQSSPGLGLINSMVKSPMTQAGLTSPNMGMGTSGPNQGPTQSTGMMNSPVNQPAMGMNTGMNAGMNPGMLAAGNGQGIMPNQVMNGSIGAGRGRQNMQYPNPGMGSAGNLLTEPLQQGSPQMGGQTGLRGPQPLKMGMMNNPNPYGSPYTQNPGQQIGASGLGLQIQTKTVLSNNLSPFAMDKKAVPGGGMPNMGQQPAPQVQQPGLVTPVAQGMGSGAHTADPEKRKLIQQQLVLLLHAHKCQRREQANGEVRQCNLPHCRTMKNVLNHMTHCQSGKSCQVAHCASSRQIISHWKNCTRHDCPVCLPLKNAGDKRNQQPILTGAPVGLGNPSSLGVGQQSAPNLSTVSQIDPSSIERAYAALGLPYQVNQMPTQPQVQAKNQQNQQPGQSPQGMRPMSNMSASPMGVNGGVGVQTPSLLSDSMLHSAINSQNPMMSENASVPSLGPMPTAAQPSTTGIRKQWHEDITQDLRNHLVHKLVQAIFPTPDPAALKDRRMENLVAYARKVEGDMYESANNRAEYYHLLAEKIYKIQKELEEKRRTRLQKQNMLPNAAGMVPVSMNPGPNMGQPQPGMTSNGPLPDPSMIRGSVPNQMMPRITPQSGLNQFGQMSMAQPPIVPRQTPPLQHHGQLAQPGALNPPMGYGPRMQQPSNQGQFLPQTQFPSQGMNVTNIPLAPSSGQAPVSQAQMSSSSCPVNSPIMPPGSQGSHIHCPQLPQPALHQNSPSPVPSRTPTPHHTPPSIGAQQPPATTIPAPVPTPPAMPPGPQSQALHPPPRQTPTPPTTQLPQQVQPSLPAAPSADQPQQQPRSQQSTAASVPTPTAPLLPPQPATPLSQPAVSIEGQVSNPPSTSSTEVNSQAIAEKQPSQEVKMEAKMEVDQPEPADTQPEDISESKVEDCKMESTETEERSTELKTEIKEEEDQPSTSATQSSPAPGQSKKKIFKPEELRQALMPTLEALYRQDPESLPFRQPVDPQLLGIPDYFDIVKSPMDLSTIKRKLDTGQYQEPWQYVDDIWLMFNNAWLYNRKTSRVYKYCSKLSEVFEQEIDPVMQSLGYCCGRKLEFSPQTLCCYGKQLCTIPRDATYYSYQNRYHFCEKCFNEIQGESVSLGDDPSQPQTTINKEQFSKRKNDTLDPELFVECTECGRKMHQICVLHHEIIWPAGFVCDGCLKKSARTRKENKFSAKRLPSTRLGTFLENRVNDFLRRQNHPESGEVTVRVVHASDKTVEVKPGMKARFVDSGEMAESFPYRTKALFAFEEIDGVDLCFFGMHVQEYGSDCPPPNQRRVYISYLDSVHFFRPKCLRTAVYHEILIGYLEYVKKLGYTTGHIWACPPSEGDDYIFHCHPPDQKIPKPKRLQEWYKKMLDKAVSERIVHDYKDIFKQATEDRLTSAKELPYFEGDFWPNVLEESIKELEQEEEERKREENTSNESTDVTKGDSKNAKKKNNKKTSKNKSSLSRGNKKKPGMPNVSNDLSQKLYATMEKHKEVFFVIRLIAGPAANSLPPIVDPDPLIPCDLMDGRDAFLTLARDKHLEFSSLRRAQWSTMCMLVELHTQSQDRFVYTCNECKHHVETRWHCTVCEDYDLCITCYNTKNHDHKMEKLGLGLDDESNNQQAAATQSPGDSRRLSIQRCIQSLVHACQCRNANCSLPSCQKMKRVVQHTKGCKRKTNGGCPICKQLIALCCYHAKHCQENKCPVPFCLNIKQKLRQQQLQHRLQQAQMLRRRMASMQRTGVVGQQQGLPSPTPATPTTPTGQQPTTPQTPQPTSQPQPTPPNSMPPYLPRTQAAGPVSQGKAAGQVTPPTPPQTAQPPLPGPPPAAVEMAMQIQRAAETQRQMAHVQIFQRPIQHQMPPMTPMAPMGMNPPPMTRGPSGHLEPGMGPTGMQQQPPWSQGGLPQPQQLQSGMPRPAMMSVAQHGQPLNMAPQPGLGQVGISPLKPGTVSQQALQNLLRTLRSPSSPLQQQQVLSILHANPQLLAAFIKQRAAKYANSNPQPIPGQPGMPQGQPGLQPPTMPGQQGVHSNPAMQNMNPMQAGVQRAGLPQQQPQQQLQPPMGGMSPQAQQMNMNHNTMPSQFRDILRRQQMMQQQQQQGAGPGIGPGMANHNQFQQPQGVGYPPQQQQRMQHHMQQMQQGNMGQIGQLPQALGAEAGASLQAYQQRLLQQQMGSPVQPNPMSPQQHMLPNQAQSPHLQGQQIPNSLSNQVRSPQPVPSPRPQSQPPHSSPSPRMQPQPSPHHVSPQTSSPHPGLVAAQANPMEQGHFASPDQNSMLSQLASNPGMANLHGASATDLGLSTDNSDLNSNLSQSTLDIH

[2] = biological target: B3; test: HDX-MS
[3] = biological target: B2; test: SEC-MALS
[4] = biological target: T1, histone acetyltransferase p300, …; test: HDX-MS

Row | binding result [1] | binding result [2] | stoichiometry N [3] | binding result [4] | Binder
1 | binds | binds | – | – | B1
2 | binds | binds | – | – | B2
3 | – | – | 0.5 SRC3 per PR-A | binds | B3
